Data: patent US20190233498A1 (H LUNDBECK A S, published 2019)

T1: human PACAP38 (human, not fully specified; C-terminal lysine is amidated; N-terminal or C-terminal biotin in the HTRF and PC-12 cell binding assays)
T1 peptide: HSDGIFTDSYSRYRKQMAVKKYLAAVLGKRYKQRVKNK

T2: human PACAP27 (human, C-terminal leucine is amidated; 125I-labelled in Example 10)
T2 peptide: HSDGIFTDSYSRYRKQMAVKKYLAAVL

T3: human VIP (human)
T3 construct: also called Vasoactive Intestinal Peptide
T3 peptide: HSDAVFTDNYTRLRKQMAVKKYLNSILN


How the values were obtained:
human PACAP38 [1] = molecular target: T1, human PACAP38; assay: cell-based or functional assay
human PACAP27 [2] = molecular target: T2, human PACAP27; assay: cell-based or functional assay
human PACAP38 [3] = molecular target: T1, human PACAP38; assay: cell-based or functional assay
human VIP = molecular target: T3, human VIP; assay: SPR, Ab immobilised
Procedure: [The procedure below names another target; the source says it served here with some conditions changed.] (§1) Binding affinities of monoclonal antibodies for human PACAP were estimated using SPR on the PROTEON™ XPR36 (Bio-Rad, Hercules, Calif.). Antibody was immobilized to the surface of general amine coupling (“GLC” or “GLM”) Chips (Bio-Rad, Hercules, Calif.). A dilution series of human PACAP38 (SEQ ID NO: 1241) prepared in 1×PBST Buffer (4.3 mM Na Phosphate, 1.4 mM K Phosphate, 135 mM NaCl, 2.7 mM KCl 0.05% Polysorbate-20) purchased from Teknova (Cat# P1192, Teknova, Hollister, Calif.) and supplemented with 0.25 M arginine (from J.T. BAKER®), 0.2 mg/ml BSA (Jackson Immuno Research Labs, West Grove, Pa.), and 0.005% sodium azide (VWR International, Radnor, Pa.) with the pH adjusted to 7 was used to query the antibodies. Antigen (ranging from 1.23 nM to 100 nM) was typically run sequentially with association times of 2-4 minutes and dissociation times of 3-120 minutes grouped with the PROTEON™ Manager Software (v3.1.0.6 (Bio-Rad, Hercules, Calif.)) and fitted using a 1:1 Langmuir binding model. Surfaces were regenerated between analyte queries using 0.85% Phosphoric Acid.

human PACAP27 [4] = molecular target: T2, human PACAP27; assay: SPR, Ab immobilised
Procedure: [The procedure below names another target; the source says it served here with some conditions changed.] as §1

human PACAP38 [5] = molecular target: T1, human PACAP38; assay: SPR, Ab immobilised
Procedure: as §1

human PACAP38 [6] = molecular target: T1, human PACAP38; assay: cell-based or functional assay
human PACAP38 [7] = molecular target: T1, human PACAP38; assay: inhibition of 30 nM biotin-PACAP38 binding to PC-12 cells, TRF
Procedure: (§2) To identify antibodies that block PACAP38 binding to PAC1-R-expressing cells, adherent PC-12 cells (ATCC, Manassas, Va.) expressing PAC1-R were used in a Europium-based PAC1-R expressing cells binding assay.
(§3) Antibody solutions were incubated with N-terminal biotinylated PACAP38 at 10× the final concentration (100 nM or 30 nM) for 1 hr, then added to PC-12 cells that were plated 24 hrs. prior in black clear bottom 96 well plates (COSTAR™, Corning Incorporated, Corning, N.Y.) and further incubated for 1 hr at room temperature. After three washes, the cells were incubated with 20 μl Europium-labeled streptavidin (PerkinElmer, Waltham, Mass.) for 1 hr at room temperature. Cells were washed three times, then 20 μl DELFIA® Enhancement solution (PerkinElmer, Waltham, Mass.) was added to each well and incubated for 15 minutes with gentle shaking. Plates were read (Time Resolved Fluorescence (“TRF”)) on SPECTRAMAX® (Molecular Devices, Sunnyvale, Calif.) plate reader.
(§4) FIGS. 14A-14BB are representative of the inhibition curves obtained by this method (results are shown for Ab1, Ab2, Ab3, Ab4, Ab5, Ab6, Ab7, Ab8, Ab9, Ab10, Ab11, Ab12, Ab13, Ab14, Ab15, Ab16, Ab17, Ab18, Ab19, Ab1.H, Ab10.H, Ab22, Ab23, Ab3.H, Ab4.H, Ab5.H, Ab9.H, and Ab12.H, respectively) wherein the PAC1-R expressing cells were PC-12 cells.

human PACAP38 [8] = molecular target: T1, human PACAP38; assay: inhibition of 100 nM biotin-PACAP38 binding to PC-12 cells, TRF
Procedure: as §2, §3, §4

human PACAP38 [9] = molecular target: T1, human PACAP38; assay: HTRF binding, biotin-PACAP38
Procedure: In parallel, 10 μl of an antibody dilution series (highest final concentration of 100 nM) were incubated with 10 μl of N-terminal or C-terminal biotinylated PACAP38 (35 nM final) alone, or in combination with either PACAP27 (350 nM final) or VIP (350 nM final), i.e., 10× PACAP27 or 10×VIP, respectively, in a HTRF plate. 20 μl of Eu³⁺ cryptate labeled anti-hu Fc donor and 20 μl of d2-labeled streptavidin acceptor were added to each well and incubated for 1 hour at room temperature. Fluorescence was measured at 620 and 665 nm with a delay of 300 μsec.
EC₅₀ values, i.e. the concentration of an antibody that yields a response halfway between the baseline and the maximum value within a specified time period, were computed for each antibody based upon their binding curves and are shown in Table 1 below. […] A humanized form of antibody Ab1 was produced and is identified by an appended “.H”, i.e., Ab1.H, and it also bound PACAP38 with high affinity.

Binder | IC50, 1 nM PACAP38-induced human VPAC2-R mediated cAMP increase (human PACAP38 [1]) [µM] | IC50, 0.1 nM PACAP27-induced PAC1-R mediated cAMP increase (human PACAP27 [2]) [nM] | IC50, 0.1 nM PACAP38-induced PAC1-R mediated cAMP increase (human PACAP38 [3]) [nM] | Kd (human VIP) [µM] | koff (human VIP) [s⁻¹] | Kd (human PACAP27 [4]) [nM] | koff (human PACAP27 [4]) [s⁻¹] | kon (human PACAP27 [4]) [M⁻¹ s⁻¹] | Kd (human PACAP38 [5]) [nM] | koff (human PACAP38 [5]) [s⁻¹] | kon (human PACAP38 [5]) [M⁻¹ s⁻¹] | IC50, 5 nM PACAP38-induced human VPAC1-R mediated cAMP increase (human PACAP38 [6]) [µM] | IC50 (human PACAP38 [7]) [µM] | kon (human VIP) [M⁻¹ s⁻¹] | IC50 (human PACAP38 [8]) [µM] | EC50 (human PACAP38 [9]) [µM]
anti-PACAP antibody Ab3.H (antibody, human IgG1, kappa, N297A, V domains shown, humanized form of Ab3, full length) VH: EVQLVESGGGLVQPGGSLRLSCAASGFSFSSSDYMCWVRQAPGKGLEWIGCIDAGSSGDTYFASSAKGRFTISRDNSKNTVYLQMNSLRAEDTAVYFCARHLYGSITFAFGLWGQGTLVTVSS VL: AAQMTQSPSTLSASVGDRVTITCQASQSIGSDLAWYQQKPGKAPKLLIYDASTLASGVPSRFSGSGSGTEFTLTISSLQPDDFATYYCQGTYYSSGWYTAFGGGTKVEIKR | 0.0642 | 1.21 | 1.32 | 100000 | 0.1 | 1 | 0.00034 | 330000 | 0.29 | 0.00014 | 490000 | 0.00733 | 0.0883 |  |  | 
anti-PACAP antibody Ab4.H (antibody, human IgG1, kappa, N297A, V domains shown, humanized form of Ab4, full length) VH: EVQLVESGGGLVQPGGSLRLSCAASGFSLSSYDMSWVRQAPGKGLEWIGIINTNDDTWYASWVKGRFTISRDNSKNTLYLQMNSLRAEDTAVYYCARISDAYVFDYAYYFTLWGQGTLVTVSS VL: DIQMTQSPSTLSASVGDRVTITCLASQNIYNSLAWYQQKPGKAPKLLIYRASTLASGVPSRFSGSGSGTEFTLTISSLQPDDFATYYCQQGAGADNIGNPFGGGTKVEIKR | 0.00449 | 0.294 | 0.307 | 0.072 | 0.024 | ≤ 0.031 | ≤ 1e-05 | 330000 | 0.1 | 3.2e-05 | 310000 | 0.0026 | 0.098 | 330000 |  | 
anti-PACAP antibody Ab8 (antibody, human IgG1, kappa, N297A, V domains shown, full-length rabbit/human chimeric antibody) VH: LEQSGGGAEGGLVKPGGSLELCCKASGFSLTTSHWMCWVRQAPGKGLNWIGCISAGSGDADYATWVDAQFTLSRDIDQNTGCLQLNSLTPADTAMYYCTINFELWGQGTLVTVSS VL: AQVLTQTPSSVSAAVGGTVTINCQSSPSVYSSYLSWFQQKPGQPPKFLIYEASKLASGVPSRFSGSGSGTQFTLTISGVQCSDAATYYCLGAYDCGRTDCHAFGGGTEVVVKR | 0.000147 | 0.049 | 0.0393 | 0.21 | 0.1 | 0.14 | 6e-05 | 440000 | ≤ 0.029 | ≤ 1e-05 | 350000 | 0.000481 |  | 480000 | 0.0203 | 0.00048
anti-PACAP antibody Ab9 (antibody, human IgG1, kappa, N297A, V domains shown, full-length rabbit/human chimeric antibody) VH: EQSGGGAEGGLVKPGGSLKLSCKASGFTISRDYWICWVRQAPGKGLEWIGCISAGGGSTDYANWVNGRFTLSRDIDQSTGCLQLNSLTDADTAMYYCAGNLEIWGQGTLVTVSS VL: AQVLTQTPSSVSAAVGGTVTINCQSSPSIYSGAFLSWFQQKPGQPPKFLIYEASKLASGVPSRFSGSGSGTQFTLTISDVQCDDAATYYCLGFYDCSSVDCHAFGGGTEVVVKR | 0.00696 | 2.84 | 0.987 | 100000 | 0.1 | 0.34 | 0.00032 | 960000 | 0.14 | 0.00011 | 820000 | 0.00406 |  |  | 0.0333 | 0.00023
anti-PACAP antibody Ab2 (antibody, human IgG1, kappa, N297A, V domains shown, full-length rabbit/human chimeric antibody) VH: QSVEESGGRLVTPGTPLTLTCTVSGFSLSGAAMNWVRQAPGKGLEWIGVIGNSGSTYYASWAKGRFTISKTSSTTVDLKMTSPTTEDTATYFCARGGGEFFIWGQGTLVTVSS VL: AQVLTQTPSPVSAAVGGTVTINCQSSESVYKNNYLSWYQQKPGQPPKFLIYQASNLADGVPSRFKGSGSGTQFTLTISDLECDDAATYYCAGGYSTYMSGFGGGTEVVVKR | 0.000174 | 0.063 | 0.237 | 0.14 | 0.084 | ≤ 0.012 | ≤ 1e-05 | 830000 | ≤ 0.044 | ≤ 1e-05 | 230000 | 0.000688 |  | 580000 | 0.0266 | 0.00035

More lines, in order of falling Kd (human VIP), values ahead:

IC50, 1 nM PACAP38-induced human VPAC2-R mediated cAMP increase (human PACAP38 [1]) [µM] | IC50, 0.1 nM PACAP27-induced PAC1-R mediated cAMP increase (human PACAP27 [2]) [nM] | IC50, 0.1 nM PACAP38-induced PAC1-R mediated cAMP increase (human PACAP38 [3]) [nM] | Kd (human VIP) [µM] | koff (human VIP) [s⁻¹] | Kd (human PACAP27 [4]) [nM] | koff (human PACAP27 [4]) [s⁻¹] | kon (human PACAP27 [4]) [M⁻¹ s⁻¹] | Kd (human PACAP38 [5]) [nM] | koff (human PACAP38 [5]) [s⁻¹] | kon (human PACAP38 [5]) [M⁻¹ s⁻¹] | IC50, 5 nM PACAP38-induced human VPAC1-R mediated cAMP increase (human PACAP38 [6]) [µM] | IC50 (human PACAP38 [7]) [µM] | kon (human VIP) [M⁻¹ s⁻¹] | IC50 (human PACAP38 [8]) [µM] | EC50 (human PACAP38 [9]) [µM] | Binder
0.000147 | 0.0729 | 0.293 | 0.099 | 0.025 | ≤ 0.1 | ≤ 1e-05 | 1e+06 | ≤ 0.027 | ≤ 1e-05 | 370000 | 0.000665 |  | 250000 | 0.0127 | 0.00043 | anti-PACAP antibody Ab1 (antibody, human IgG1, kappa, N297A, V domains shown, full-length rabbit/human chimeric antibody) VH: QSVEESGGRLVTPGTPLTLTCTVSGFSLSSAVMNWVRQAPGKGLEWIGSIVASGTTYYASWANGRFTISKTSSTTMDLKMTSPTTEDTATYFCARGGGEFFIWGPGTLVTVSS VL: DPVMTQTPSSTSAAVGGTVTISCQSSESVYSNYLSWYQQKPGQPPNFLIYQASNLASGVPSRFKGSGSGTQFTLTITDLECDDAATYYCAGGYSENIVGFGGGTEVVVKR
0.000217 | 0.38 | 0.0512 | 0.044 | 0.00014 | 0.21 | 8.2e-05 | 390000 | 0.14 | 4.1e-05 | 300000 | 0.000797 |  | 3100 | 0.0078 | 0.0005 | anti-PACAP antibody Ab6 (antibody, human IgG1, kappa, N297A, V domains shown, full-length rabbit/human chimeric antibody) VH: LEQSGGGAEGGLVKPGGSLELCCKASGFSLSSTYWMCWVRQAPGKGLEWIGCIYTGSGSTDYASWVNGQFTLSRDIDQSTGCLQLNSLTVADTAMYYCTKNFDLWGPGTLVTVSS VL: AQVLTQTPSSVSAAVGGTVTINCQSSPSVYSNNYLSWFQQKPGQPPKGLIADASTLASGVPSRFKGSGSGTQFTLTISGVQCDDAAAYYCLGYYDCGSTDCHAFGGGTEVVVKR
